Test results reported in US20200147199A1.

Target: ZIKV E Domain III ([..]), polyhistidine-AviTag, produced in HEK-293-6E cells (ZIKV)
Assay: ELISA, biotinylated Z004 on coated ZEDIII, streptavidin-HRP
Conditions: remark: other sources report otherwise

B1: Z004 (MEX18_89) (antibody, V domains shown)
VH: EVQLLESGGGLVQPGGSLRLTCATSGFTFRDYAMSWVRQAPGKGLEWVSSYSGIDDSTYYADSVKGRFTISRDNSKSTLSLHMNSLRAEDSALYFCAKDRGPRGVGELFDSWGQGTLVTVSS
VL: DIQMTQSPSTLSASVGDRVTITCRASQSISKWLAWYQQKPGKAPKLLIYTTSTLKSGVPSRFSGSGSGTEFTLTISSLQPDDFATYYCQHFYSVPWTFGQGTKVEIK
- EC50: 0.16 µg/mL
